Data as given in patent US20110263454A1, “Methods of Identifying Functional Characteristics of Promoters, Transcription Modifying Proteins and Transcription Modulating Agents” (Salk Institute for Biological Studies, priority 2008, published 2011).

Tests used:
mPgc1b promoter = test: NHR-promoter luciferase screen, mPgc1b promoter; type: cell-based, mouse; details: for Luc. act., normalized to lacZ / Normalized Luc. act., normalized to control: PGC1b promoter reporter, co-transfected HR, without or with its ligand; for Normalized Luc. act., normalized to control: relative to control; for luciferase activity normalized to lacZ activity and to a control, mPgc1b: mPgc1b promoter-luciferase, CV-1 cells, NHR +/- ligand, control = 1.00
Outline: (§1)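 CV-1 cells co-transfected with NHR homodimer or NHR/RXR heterodimer (pcDNA3.1, C-terminal V5H6 tag), promoter-luciferase construct and LacZ transfection control. Orphan receptors screened without ligand. Luciferase normalized to LacZ and to no-NHR/no-ligand control.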

MCP-1 promoter = test: NHR-promoter luciferase screen, MCP-1 promoter; type: cell-based; details: for Normalized Luc. act., normalized to control / Luc. act., normalized to lacZ: MCP-1 promoter reporter; for Normalized Luc. act., normalized to control: HR without or with its ligand, relative to control; for Luc. act., normalized to lacZ: hormone receptor (HR) without or with its ligand; for mMCP-1 promoter reporter activity: transcription factor +/- ligand, control = 1.00
Outline: (§2)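 CV-1 cells were co-transfected with 50 ng NHR (homodimer or NHR/RXR heterodimer), 100 ng promoter-luciferase construct and 50 ng LacZ. Luciferase was normalized to LacZ and to a no-NHR/no-ligand control.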

hCYP3A4 promoter = test: NHR-promoter luciferase screen, hCYP3A4 promoter; type: cell-based, human; details: for Luc. act., normalized to lacZ / Normalized Luc. act., normalized to control: CYP3A4 promoter, HR/ligand component; for hCYP3A4 promoter reporter activity: transcription factor +/- ligand, control = 1.00
Outline: as §1

mDio1 promoter = test: NHR-promoter luciferase screen, mDio1 promoter; type: cell-based, mouse; details: for Luc. act., normalized to lacZ / Normalized Luc. act., normalized to control: Dio1, HR component without or with its ligand; for mDio1 promoter reporter activity: transcription factor +/- ligand, control = 1.00
Outline: as §2

mDio2 promoter = test: NHR-promoter luciferase screen, mDio2 promoter; type: cell-based, mouse; details: for Luc. act., normalized to lacZ / Normalized Luc. act., normalized to control: Dio2, HR component without or with its ligand; for mDio2 promoter reporter activity: transcription factor +/- ligand, control = 1.00
Outline: as §2

mABCA1 promoter = test: NHR-promoter luciferase screen, mABCA1 promoter; type: cell-based, mouse; details: for Luc. act., normalized to lacZ / Normalized Luc. act., normalized to control: ABCA1 promoter, hormone receptor with or without its ligand; for Normalized Luc. act., normalized to control: relative to control; for mABCA1 promoter reporter activity: transcription factor +/- ligand, control = 1.00
Outline: as §2

B1: ERR2: Estrogen Related Receptor β (NR3B2, ERRb), cDNA driver (protein, UniProt O95718 1-433, looked up)
Steroid hormone receptor ERR2: MSSDDRHLGSSCGSFIKTEPSSPSSGIDALSHHSPSGSSDASGGFGLALGTHANGLDSPPMFAGAGLGGTPCRKSYEDCASGIMEDSAIKCEYMLNAIPKRLCLVCGDIASGYHYGVASCEACKAFFKRTIQGNIEYSCPATNECEITKRRRKSCQACRFMKCLKVGMLKEGVRLDRVRGGRQKYKRRLDSESSPYLSLQISPPAKKPLTKIVSYLLVAEPDKLYAMPPPGMPEGDIKALTTLCDLADRELVVIIGWAKHIPGFSSLSLGDQMSLLQSAWMEILILGIVYRSLPYDDKLVYAEDYIMDEEHSRLAGLLELYRAILQLVRRYKKLKVEKEEFVTLKALALANSDSMYIEDLEAVQKLQDLLHEALQDYELSQRHEEPWRTGKLLLTLPLLRQTAAKAVQHFYSVKLQGKVPMHKLFLEMLEAKV
mPgc1b promoter
  Luc. act., normalized to lacZ: 12.7
  Normalized Luc. act., normalized to control: 1.1
  luciferase activity normalized to lacZ activity and to a control, mPgc1b: 1.07
MCP-1 promoter
  Normalized Luc. act., normalized to control: 8.8
  Luc. act., normalized to lacZ: 946.7
  mMCP-1 promoter reporter activity: 8.84
hCYP3A4 promoter
  Luc. act., normalized to lacZ: 15.5
  Normalized Luc. act., normalized to control: 3.5
  hCYP3A4 promoter reporter activity: 3.49
mDio1 promoter
  Luc. act., normalized to lacZ: 13.6
  Normalized Luc. act., normalized to control: 3.1
  mDio1 promoter reporter activity: 3.05
mDio2 promoter
  Luc. act., normalized to lacZ: 39.5
  Normalized Luc. act., normalized to control: 2.5
  mDio2 promoter reporter activity: 2.52
mABCA1 promoter
  Luc. act., normalized to lacZ: 33.0
  Normalized Luc. act., normalized to control: 5.9
  mABCA1 promoter reporter activity: 5.88

B2: ERR3: Estrogen Related Receptor γ (NR3B3, ERRg), cDNA driver (protein, UniProt P62508 1-458, looked up)
Estrogen-related receptor …: MDSVELCLPESFSLHYEEELLCRMSNKDRHIDSSCSSFIKTEPSSPASLTDSVNHHSPGGSSDASGSYSSTMNGHQNGLDSPPLYPSAPILGGSGPVRKLYDDCSSTIVEDPQTKCEYMLNSMPKRLCLVCGDIASGYHYGVASCEACKAFFKRTIQGNIEYSCPATNECEITKRRRKSCQACRFMKCLKVGMLKEGVRLDRVRGGRQKYKRRIDAENSPYLNPQLVQPAKKPYNKIVSHLLVAEPEKIYAMPDPTVPDSDIKALTTLCDLADRELVVIIGWAKHIPGFSTLSLADQMSLLQSAWMEILILGVVYRSLSFEDELVYADDYIMDEDQSKLAGLLDLNNAILQLVKKYKSMKLEKEEFVTLKAIALANSDSMHIEDVEAVQKLQDVLHEALQDYEAGQHMEDPRRAGKMLMTLPLLRQTSTKAVQHFYNIKLEGKVPMHKLFLEMLEAKV
mPgc1b promoter
  Luc. act., normalized to lacZ: 20.1
  Normalized Luc. act., normalized to control: 1.7
  luciferase activity normalized to lacZ activity and to a control, mPgc1b: 1.70
MCP-1 promoter
  Normalized Luc. act., normalized to control: 4.6
  Luc. act., normalized to lacZ: 487.3
  mMCP-1 promoter reporter activity: 4.55
hCYP3A4 promoter
  Luc. act., normalized to lacZ: 4.5
  Normalized Luc. act., normalized to control: 1.0
  hCYP3A4 promoter reporter activity: 1.02
mDio1 promoter
  Luc. act., normalized to lacZ: 5.9
  Normalized Luc. act., normalized to control: 1.3
  mDio1 promoter reporter activity: 1.32
mDio2 promoter
  Luc. act., normalized to lacZ: 85.6
  Normalized Luc. act., normalized to control: 5.4
  mDio2 promoter reporter activity: 5.45
mABCA1 promoter
  Luc. act., normalized to lacZ: 11.4
  Normalized Luc. act., normalized to control: 2.0
  mABCA1 promoter reporter activity: 2.04
